Measurements taken from PMC4358367, “Structural basis of diverse membrane target recognitions by ankyrins” (eLife, 2014).

B1: AnkB_repeats (24 ANK repeats of human 220 kDa ankyrin-B, residues 28–873) [human] / Cav1.3 peptide (mouse Cav1.3 residues 2134–2166), FITC-labeled [modified: FITC label (position not stated); FITC label (position not stated)] [mouse] (parent complex)
chain 1: KSDSNASFLRAARAGNLDKVVEYLKGGIDINTCNQNGLNALHLAAKEGHVGLVQELLGRGSSVDSATKKGNTALHIASLAGQAEVVKVLVKEGANINAQSQNGFTPLYMAAQENHIDVVKYLLENGANQSTATEDGFTPLAVALQQGHNQAVAILLENDTKGKVRLPALHIAARKDDTKSAALLLQNDHNADVQSKMMVNRTTESGFTPLHIAAHYGNVNVATLLLNRGAAVDFTARNGITPLHVASKRGNTNMVKLLLDRGGQIDAKTRDGLTPLHCAARSGHDQVVELLLERGAPLLARTKNGLSPLHMAAQGDHVECVKHLLQHKAPVDDVTLDYLTALHVAAHCGHYRVTKLLLDKRANPNARALNGFTPLHIACKKNRIKVMELLVKYGASIQAITESGLTPIHVAAFMGHLNIVLLLLQNGASPDVTNIRGETALHMAARAGQVEVVRCLLRNGALVDARAREEQTPLHIASRLGKTEIVQLLLQHMAHPDAATTNGYTPLHISAREGQVDVASVLLEAGAAHSLATKKGFTPLHVAAKYGSLDVAKLLLQRRAAADSAGKNGLTPLHVAAHYDNQKVALLLLEKGASPHATAKNGYTPLHIAAKKNQMQIASTLLNYGAETNIVTKQGVTPLHLASQEGHTDMVTLLLDKGANIHMSTKSGLTSLHLAAQEDKVNVADILTKHGADQDAHTKLGYTPLIVACHYGNVKMVNFLLKQGANVNAKTKNGYTPLHQAAQQGHTHIINVLLQHGAKPNATTANGNTALAIAKRLGYISVVDTLKVVTEEVTTTTTTITEKHKLNVPETMTEVLDVSDEEGDDTMTGDGGEYLRPEDLKELGDD
chain 2: ELQDFGPGYSDEEPDPGREEEDLADEMICITTL

Variants of: B1
Experiment: fluorescence polarisation; parent: 3.3e+03 nM

Variant	Kd [µM]
chain 1 F104Q, chain 1 F137Q	3.3
chain 1 L339Q, chain 1 F372Q, chain 1 L405Q	4
chain 1 I240Q, chain 1 L273Q	8.2
